Test results: patent US20240239863A1, “GIP RECEPTOR AGONIST AND USE THEREOF” (HANGZHOU ZHONGMEIHUADONG PHARMACEUTICAL CO., LTD., priority 2022, published 2024)
Non-standard residues stand in square brackets, D forms with d. Residues, ends and D or L forms follow the SMILES beside them. No end group written: not given here. Aib = CC(C)(N)C(=O)O

T1: human GIP receptor (glucose-dependent insulinotropic peptide receptor, GIPR) (human, UniProt P48546 22-466)
T1 sequence (looked up): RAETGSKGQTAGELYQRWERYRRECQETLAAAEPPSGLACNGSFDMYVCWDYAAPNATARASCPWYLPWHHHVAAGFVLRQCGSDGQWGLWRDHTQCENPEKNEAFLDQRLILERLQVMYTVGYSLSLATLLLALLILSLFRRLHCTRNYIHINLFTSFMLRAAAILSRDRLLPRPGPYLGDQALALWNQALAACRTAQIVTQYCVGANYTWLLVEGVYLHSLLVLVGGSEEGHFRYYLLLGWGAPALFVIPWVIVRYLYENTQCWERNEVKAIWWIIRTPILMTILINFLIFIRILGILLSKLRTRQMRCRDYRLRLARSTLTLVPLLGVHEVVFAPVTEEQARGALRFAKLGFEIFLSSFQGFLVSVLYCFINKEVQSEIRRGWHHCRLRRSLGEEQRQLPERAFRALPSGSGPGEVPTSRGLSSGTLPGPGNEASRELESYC


Key:
hGLP-1R = hGLP-1R (Homo sapiens, UniProt P43220); experiment: Cell agonistic activity at GLP-1 receptor (Example 7); format: cell-based
hGLP-1R, sequence (P43220 24-463): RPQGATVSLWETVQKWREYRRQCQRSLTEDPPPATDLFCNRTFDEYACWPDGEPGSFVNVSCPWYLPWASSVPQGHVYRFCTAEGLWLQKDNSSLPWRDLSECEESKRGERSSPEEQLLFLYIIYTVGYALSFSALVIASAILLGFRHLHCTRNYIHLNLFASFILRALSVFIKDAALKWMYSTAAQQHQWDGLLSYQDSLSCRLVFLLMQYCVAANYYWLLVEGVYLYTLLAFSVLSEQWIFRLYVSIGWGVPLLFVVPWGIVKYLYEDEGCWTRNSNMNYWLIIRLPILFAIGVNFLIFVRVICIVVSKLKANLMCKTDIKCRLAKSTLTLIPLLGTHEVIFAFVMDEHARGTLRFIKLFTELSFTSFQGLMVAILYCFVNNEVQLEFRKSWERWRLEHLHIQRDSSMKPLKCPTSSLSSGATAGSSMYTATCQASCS

human GLP-1 receptor = human GLP-1 receptor (human, UniProt P43220 24-463); experiment: cell-based or functional assay
[1] = target: T1, human GIP receptor (glucose-dependent …); experiment: cell-based or functional assay

Row | Molecule | EC50 (hGLP-1R) [nM] | EC50(pM), cell agonistic activity (human GLP-1 receptor) [pM] | EC50(pM), cell agonistic activity (cAMP, HTRF) [1] [pM]
1 | CC[C@H](C)[C@H](NC(=O)[C@H](CO)NC(=O)[C@H](Cc1ccc(O)cc1)NC(=O)[C@H](CC(=O)O)NC(=O)[C@H](CO)NC(=O)[C@@H](NC(=O)[C@H](Cc1ccccc1)NC(=O)[C@@H](NC(=O)CNC(=O)[C@H](CCC(=O)O)NC(=O)C(C)(C)NC(=O)[C@@H](N)Cc1ccc(O)cc1)[C@@H](C)O)[C@@H](C)CC)C(=O)N[C@@H](C)C(=O)N[C@@H](CC(C)C)C(=O)N[C@@H](CC(=O)O)C(=O)N[C@@H](CCC(=O)O)C(=O)N[C@H](C(=O)N[C@@H](Cc1c[nH]cn1)C(=O)N[C@@H](CCC(N)=O)C(=O)N[C@@H](CCCCN)C(=O)N[C@@H](CC(=O)O)C(=O)N[C@@H](Cc1ccccc1)C(=O)N[C@H](C(=O)N[C@@H](CC(N)=O)C(=O)N[C@@H](Cc1c[nH]c2ccccc12)C(=O)N[C@@H](CC(C)C)C(=O)N[C@@H](CC(C)C)C(=O)N[C@@H](C)C(=O)N[C@@H](CCC(N)=O)C(=O)N[C@@H](CCCNC(=N)N)C(=O)NCC(=O)O)C(C)C)[C@@H](C)CC [Sequence 5] (H-Y[Aib]EGTFISDYSIALDEIHQKDFVNWLLAQRG-OH; N-terminus and C-terminus assumed) | > 0.1 |  | 
2 | CC[C@H](C)[C@H](NC(=O)[C@H](CO)NC(=O)[C@H](Cc1ccc(O)cc1)NC(=O)[C@H](CC(=O)O)NC(=O)[C@H](CO)NC(=O)[C@@H](NC(=O)[C@H](Cc1ccccc1)NC(=O)[C@@H](NC(=O)CNC(=O)[C@H](CCC(=O)O)NC(=O)C(C)(C)NC(=O)[C@@H](N)Cc1ccc(O)cc1)[C@@H](C)O)[C@@H](C)CC)C(=O)N[C@@H](C)C(=O)N[C@@H](CC(C)C)C(=O)N[C@@H](CC(=O)O)C(=O)N[C@@H](CCCNC(=N)N)C(=O)N[C@H](C(=O)N[C@@H](Cc1c[nH]cn1)C(=O)N[C@@H](CCC(N)=O)C(=O)N[C@@H](CCC(=O)O)C(=O)N[C@@H](CC(=O)O)C(=O)N[C@@H](Cc1ccccc1)C(=O)N[C@H](C(=O)N[C@@H](CCCCN)C(=O)N[C@@H](Cc1c[nH]c2ccccc12)C(=O)N[C@@H](CC(C)C)C(=O)N[C@@H](CC(C)C)C(=O)N[C@@H](C)C(=O)N[C@@H](CCC(N)=O)C(=O)N[C@@H](CCCNC(=N)N)C(=O)NCC(=O)O)C(C)C)[C@@H](C)CC [Sequence 11] (H-Y[Aib]EGTFISDYSIALDRIHQEDFVKWLLAQRG-OH; N-terminus and C-terminus assumed) | > 0.1 |  | 
3 | CC[C@H](C)[C@H](NC(=O)[C@H](CCCCN)NC(=O)[C@H](CC(=O)O)NC(=O)[C@H](CC(C)C)NC(=O)C(C)(C)NC(=O)[C@@H](NC(=O)[C@H](CO)NC(=O)[C@H](Cc1ccc(O)cc1)NC(=O)[C@H](CC(=O)O)NC(=O)[C@H](CO)NC(=O)[C@@H](NC(=O)[C@H](Cc1ccccc1)NC(=O)[C@@H](NC(=O)CNC(=O)[C@H](CCC(=O)O)NC(=O)C(C)(C)NC(=O)[C@@H](N)Cc1ccc(O)cc1)[C@@H](C)O)[C@@H](C)CC)[C@@H](C)CC)C(=O)N[C@@H](Cc1c[nH]cn1)C(=O)N[C@@H](CCC(N)=O)C(=O)N[C@@H](CCC(=O)O)C(=O)N[C@@H](CC(=O)O)C(=O)N[C@@H](Cc1ccccc1)C(=O)N[C@H](C(=O)N[C@@H](CCCCN)C(=O)N[C@@H](Cc1c[nH]c2ccccc12)C(=O)N[C@@H](CC(C)C)C(=O)N[C@@H](CC(C)C)C(=O)N[C@@H](C)C(=O)N[C@@H](CCC(N)=O)C(=O)N[C@@H](CCCCN)C(=O)NCC(=O)O)C(C)C [Sequence 1] (H-Y[Aib]EGTFISDYSI[Aib]LDKIHQEDFVKWLLAQKG-OH; N-terminus and C-terminus assumed) | > 0.1 |  | 
4 | CC[C@H](C)[C@H](NC(=O)[C@H](CO)NC(=O)[C@H](Cc1ccc(O)cc1)NC(=O)[C@H](CC(=O)O)NC(=O)[C@H](CO)NC(=O)[C@@H](NC(=O)[C@H](Cc1ccccc1)NC(=O)[C@@H](NC(=O)CNC(=O)[C@H](CCC(=O)O)NC(=O)C(C)(C)NC(=O)[C@@H](N)Cc1ccc(O)cc1)[C@@H](C)O)[C@@H](C)CC)C(=O)N[C@@H](C)C(=O)N[C@@H](CC(C)C)C(=O)N[C@@H](CC(=O)O)C(=O)N[C@@H](CCCNC(=N)N)C(=O)N[C@H](C(=O)N[C@@H](Cc1c[nH]cn1)C(=O)N[C@@H](CCC(N)=O)C(=O)N[C@@H](CCC(N)=O)C(=O)N[C@@H](CC(=O)O)C(=O)N[C@@H](Cc1ccccc1)C(=O)N[C@H](C(=O)N[C@@H](CCCCN)C(=O)N[C@@H](Cc1c[nH]c2ccccc12)C(=O)N[C@@H](CC(C)C)C(=O)N[C@@H](CC(C)C)C(=O)N[C@@H](C)C(=O)N[C@@H](CCC(N)=O)C(=O)N[C@@H](CCCNC(=N)N)C(=O)NCC(=O)O)C(C)C)[C@@H](C)CC [Sequence 13] (H-Y[Aib]EGTFISDYSIALDRIHQQDFVKWLLAQRG-OH; N-terminus and C-terminus assumed) | > 0.1 |  | 
5 | Y[Aib]EGTFISDYSIALDKIHQEDFVKWLLAQKG [Sequence 3 (Seq ID. 3)] |  | > 100 | 3.41
6 | Y[Aib]EGTFISDYSIALDEIHQKDFVKWLLAQKG [Sequence 4 (Seq ID. 4)] |  | > 100 | 2.87
7 | Y[Aib]EGTFISDYSIALDEIHQKDFVNWLLAQRG [Sequence 5 (Seq ID. 5)] |  | > 100 | 6.12
8 | Y[Aib]EGTFISDYSIALDELHQKDFVNWLLAQRG [Sequence 6 (Seq ID. 6)] |  | > 100 | 7.93
9 | Y[Aib]EGTFISDYSIALDKIHQQDFVNWLLAQRG [Sequence 7 (Seq ID. 7)] |  | > 100 | 6.04
10 | Y[Aib]EGTFISDYSIALDKLHQQDFVNWLLAQRG [Sequence 8 (Seq ID. 8)] |  | > 100 | 11.7
11 | Y[Aib]EGTFISDYSIALDKIHQEDFVNWLLAQRG [Sequence 9 (Seq ID. 9)] |  | > 100 | 16.4
12 | Y[Aib]EGTFISDYSIALDKLHQEDFVNWLLAQRG [Sequence 10 (Seq ID. 10)] |  | > 100 | 1.63
13 | Y[Aib]EGTFISDYSIALDRIHQEDFVKWLLAQRG [Sequence 11 (Seq ID. 11)] |  | > 100 | 3.44
14 | Y[Aib]EGTFISDYSIALDRIHQEDFVNWLLAQKG [Sequence 12 (Seq ID. 12)] |  | > 100 | 0.81
15 | Y[Aib]EGTFISDYSIALDRIHQQDFVKWLLAQRG [Sequence 13 (Seq ID. 13)] |  | > 100 | 36.2
16 | Y[Aib]EGTFISDYSIALDRIHQQDFVNWLLAQKG [Sequence 14 (Seq ID. 14)] |  | > 100 | 18.4
17 | Y[Aib]EGTFISDYSIALDRLHQEDFVKWLLAQRG [Sequence 15 (Seq ID. 15)] |  | > 100 | 27.2
